Reference: patent publication US20200190201A1
Values belong to the molecule of their own block, whether it stands above or below them.

What was measured:
[1] = target: human TrkC (full-length TrkC receptor) (human) (UniProt Q16288); experiment: flow cytometry on HEK293 cells stably expressing TrkC-FL, background controls
[2] = target: human TrkB (human) (UniProt Q16620); experiment: cell-based or functional assay
[3] = target: rat TrkB (on rat spiral ganglion neurons) (rat) (UniProt Q63604); experiment: cell-based or functional assay
UniProt Q63604, sequence (Q63604 32-821): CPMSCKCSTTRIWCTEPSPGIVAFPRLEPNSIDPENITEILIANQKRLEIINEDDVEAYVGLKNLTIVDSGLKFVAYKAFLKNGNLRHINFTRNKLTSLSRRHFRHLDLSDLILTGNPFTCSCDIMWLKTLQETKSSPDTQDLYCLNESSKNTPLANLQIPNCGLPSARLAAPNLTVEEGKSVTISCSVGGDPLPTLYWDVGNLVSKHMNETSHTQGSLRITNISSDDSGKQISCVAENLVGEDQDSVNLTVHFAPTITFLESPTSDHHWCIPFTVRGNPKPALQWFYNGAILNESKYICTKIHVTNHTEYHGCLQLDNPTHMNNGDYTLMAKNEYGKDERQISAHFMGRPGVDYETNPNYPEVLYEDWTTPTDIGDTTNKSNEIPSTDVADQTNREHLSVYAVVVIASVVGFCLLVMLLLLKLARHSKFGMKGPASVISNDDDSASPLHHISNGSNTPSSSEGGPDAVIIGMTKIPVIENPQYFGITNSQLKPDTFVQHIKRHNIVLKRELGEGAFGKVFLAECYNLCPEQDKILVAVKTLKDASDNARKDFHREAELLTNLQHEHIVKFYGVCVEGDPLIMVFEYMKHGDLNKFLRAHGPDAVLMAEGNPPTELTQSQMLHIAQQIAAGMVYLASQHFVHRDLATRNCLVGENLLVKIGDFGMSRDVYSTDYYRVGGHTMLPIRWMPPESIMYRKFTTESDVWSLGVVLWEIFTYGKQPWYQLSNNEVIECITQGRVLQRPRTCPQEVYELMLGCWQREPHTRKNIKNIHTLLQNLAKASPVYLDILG

[4] = target: human TrkC (full-length TrkC receptor) (human) (UniProt Q16288); experiment: cell-based or functional assay
[5] = target: rat TrkC (on rat spiral ganglion neurons) (rat) (UniProt Q03351); experiment: cell-based or functional assay
UniProt Q03351, sequence (Q03351 32-864): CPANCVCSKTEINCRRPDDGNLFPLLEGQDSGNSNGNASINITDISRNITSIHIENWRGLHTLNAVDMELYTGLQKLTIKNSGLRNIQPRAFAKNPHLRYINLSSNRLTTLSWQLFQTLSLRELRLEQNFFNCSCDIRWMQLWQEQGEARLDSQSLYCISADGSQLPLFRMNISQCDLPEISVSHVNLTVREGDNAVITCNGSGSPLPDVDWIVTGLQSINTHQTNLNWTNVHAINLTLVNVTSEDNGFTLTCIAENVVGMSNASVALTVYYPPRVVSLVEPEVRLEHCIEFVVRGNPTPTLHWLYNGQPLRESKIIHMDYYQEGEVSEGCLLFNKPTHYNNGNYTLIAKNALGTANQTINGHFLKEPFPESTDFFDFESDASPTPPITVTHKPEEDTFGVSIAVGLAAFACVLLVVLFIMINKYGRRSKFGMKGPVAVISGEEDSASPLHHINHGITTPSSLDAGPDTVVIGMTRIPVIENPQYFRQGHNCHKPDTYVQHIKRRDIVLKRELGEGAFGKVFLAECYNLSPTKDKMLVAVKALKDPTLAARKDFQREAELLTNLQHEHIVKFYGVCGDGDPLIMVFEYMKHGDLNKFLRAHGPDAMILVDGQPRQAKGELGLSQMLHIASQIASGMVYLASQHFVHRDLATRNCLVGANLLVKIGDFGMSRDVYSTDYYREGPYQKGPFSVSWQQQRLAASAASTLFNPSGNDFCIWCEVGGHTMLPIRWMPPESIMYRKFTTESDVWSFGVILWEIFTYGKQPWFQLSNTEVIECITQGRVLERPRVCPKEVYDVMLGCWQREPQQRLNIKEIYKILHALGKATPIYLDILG

UniProt Q16620, sequence (Q16620 32-822): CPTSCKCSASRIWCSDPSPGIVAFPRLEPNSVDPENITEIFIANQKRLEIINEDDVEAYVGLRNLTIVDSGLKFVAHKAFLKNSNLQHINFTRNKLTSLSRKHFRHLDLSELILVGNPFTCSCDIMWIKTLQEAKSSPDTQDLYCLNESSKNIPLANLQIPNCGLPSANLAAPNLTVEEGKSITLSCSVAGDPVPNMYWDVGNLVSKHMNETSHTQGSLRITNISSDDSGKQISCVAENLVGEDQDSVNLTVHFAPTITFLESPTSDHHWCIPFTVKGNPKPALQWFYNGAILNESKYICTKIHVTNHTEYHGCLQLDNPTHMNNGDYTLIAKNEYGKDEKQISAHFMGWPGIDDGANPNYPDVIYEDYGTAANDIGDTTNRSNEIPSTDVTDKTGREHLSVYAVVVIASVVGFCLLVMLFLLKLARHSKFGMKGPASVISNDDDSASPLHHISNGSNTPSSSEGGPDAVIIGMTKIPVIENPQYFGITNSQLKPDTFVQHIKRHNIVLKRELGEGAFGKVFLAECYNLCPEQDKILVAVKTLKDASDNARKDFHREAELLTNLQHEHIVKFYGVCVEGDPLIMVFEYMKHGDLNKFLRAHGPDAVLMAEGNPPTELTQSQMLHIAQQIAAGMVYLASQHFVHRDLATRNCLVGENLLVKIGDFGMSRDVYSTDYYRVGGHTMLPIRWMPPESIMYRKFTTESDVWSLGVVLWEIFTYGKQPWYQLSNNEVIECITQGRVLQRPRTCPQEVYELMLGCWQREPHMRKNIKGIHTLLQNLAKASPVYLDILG
UniProt Q16288, sequence (Q16288 32-839): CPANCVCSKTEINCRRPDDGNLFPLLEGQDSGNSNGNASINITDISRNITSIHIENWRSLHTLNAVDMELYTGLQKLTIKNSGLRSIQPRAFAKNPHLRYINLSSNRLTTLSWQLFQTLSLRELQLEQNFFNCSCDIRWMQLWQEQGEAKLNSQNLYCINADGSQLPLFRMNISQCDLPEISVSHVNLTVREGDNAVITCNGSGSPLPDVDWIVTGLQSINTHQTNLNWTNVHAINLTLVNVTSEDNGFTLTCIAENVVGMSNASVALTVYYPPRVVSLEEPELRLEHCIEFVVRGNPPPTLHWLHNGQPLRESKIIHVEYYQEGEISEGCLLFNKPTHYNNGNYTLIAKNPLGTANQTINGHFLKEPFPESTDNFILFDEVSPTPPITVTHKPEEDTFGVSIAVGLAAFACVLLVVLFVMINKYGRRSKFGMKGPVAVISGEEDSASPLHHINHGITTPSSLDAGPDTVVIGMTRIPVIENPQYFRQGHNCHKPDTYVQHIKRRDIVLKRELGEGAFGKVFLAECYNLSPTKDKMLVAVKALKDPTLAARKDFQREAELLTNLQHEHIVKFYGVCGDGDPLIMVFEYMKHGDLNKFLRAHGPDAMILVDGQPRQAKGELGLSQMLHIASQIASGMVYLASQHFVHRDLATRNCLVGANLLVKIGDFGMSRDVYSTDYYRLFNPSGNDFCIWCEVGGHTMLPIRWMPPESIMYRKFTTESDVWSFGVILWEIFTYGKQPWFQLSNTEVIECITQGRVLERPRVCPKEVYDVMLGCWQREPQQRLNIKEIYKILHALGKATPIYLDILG

- mean channel fluorescence (mean channel fluorescence) [1]: 10
Molecule: control mIgG (irrelevant mouse IgG, isotype-matched controls) (antibody)

- EC50 of p-ERK response in HEK293 cells expressing human TrkB (AlphaLisa) [2]: 0.3 nM
- Maximal Effect % of p-ERK response in HEK293 cells expressing human TrkB (relative to 10 nM BDNF) [2]: 100%
B1: brain-derived neurotrophic factor (BDNF) (ligand, UniProt P23560 129-247, looked up)
chain: HSDPARRGELSVCDSISEWVTAADKKTAVDMSGGTVTVLEKVPVSKGQLKQYFYETKCNPMGYTKEGCRGIDKRHWNSQCRTTQSYVRALTMDSKKRIGWRFIRIDTSCVCTLTIKRGR
- rat spiral ganglion neuron survival relative to 1 nM NT-3 (100%) [3]: 92%

- EC50 of p-ERK response in 3T3 cells expressing human TrkC (AlphaLisa) [4]: 0.3 nM
B2: neurotrophin-3 (NT-3) (ligand)
chain: YAEHKSHRGEYSVCDSESLWVTDKSSAIDIRGHQVTVLGEIKTGNSPVKQYFYETRCKEARPVKNGCRGIDDKHWNSQCKTSQTYVRALTSENNKLVGWRWIRIDTSCVCALSRKIGRT
- surviving rat spiral ganglion neurons per well, 4 days in culture [5]: 10 to 20 neurons/well
